Where a chain is given by its changes, count along the chain named. In names and notes the source's numbering stands.
B1: wild-type PNGase F from Flavobacterium meningosepticum (enzyme)
chain: GIPAPADNTVNIKTFDKVKNAFGDGLSQSAEGTFTFPADVTAVKTIKMFIKNECPNKTCDEWDRYANVYVKNKTTGEWYEIGRFITPYWVGTEKLPRGLEIDVTDFKSLLSGNTELKIYTETWLAKGREYSVDFDIVYGTPDYKYSAVVPVVQYNKSSIDGVPYGKAHTLALKKNIQLPTNTEKAYLRTTISGWGHAKPYDAGSRGCAEWCFRTHTIAINNSNTFQHQLGALGCSANPINNQSPGNWTPDRAGWCPGMAVPTRIDVLNNSLIGSTFSYEYKFQNWTNNGTNGDAFYAISSFVIAKSNTPISAPVVTNLDPHHHHHH
notes: also called wtPNGase F; 1PNF
B2: PNGase F clone R911 (D57L, D60C, I156L, G192I, E206S, R248W) (designed binder)
chain: B1 chain with D60L, D63C, I159L, G195I, E209S, R251W
B3: PNGase F D60A single point mutant (enzyme)
chain: B1 chain with D63A
notes: also called D60A control clone
B4: PNGase F clone R911 C60A (D57L, D60A, I156L, G192I, E206S, R248W) (designed binder)
chain: B1 chain with D60L, D63A, I159L, G195I, E209S, R251W

Key:
[1] = biological target: T1, denatured bovine pancreatic Ribonuclease B (bovine, UniProt P61823 27-150); assay: SPR (Biacore 3000), dRNase B immobilised on CM5, steady state
T1 construct: mature; also called dRNase B; denatured RNase B
T1 sequence: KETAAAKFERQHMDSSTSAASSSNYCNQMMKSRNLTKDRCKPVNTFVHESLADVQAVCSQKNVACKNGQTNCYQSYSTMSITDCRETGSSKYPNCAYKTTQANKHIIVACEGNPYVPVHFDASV
Method: A high-density surface was prepared with sufficient ligand coupling to yield a theoretical $RMAX$ of ~3000 RU. To assess the impact of the D60C mutation in R911 relative to wtPNGase F, the R911 C60A mutant was also evaluated. Steady-state binding kinetics using a bimolecular interaction model was determined using a Biacore 3000 instrument.
(§1) Using a similar strategy, denatured RNase B was immobilized on a CM-5 sensor chip and serially-diluted concentrations of wtPNGase F, D60A, R911, and R911 C60A were passed over the sensor surface, while binding kinetics were measured.
Dissociation (K_D) and off-rate constants ($koff$) for the interaction between denatured glycoprotein RNase B (dRNase B) with PNGase F mutagenized clones as determined by surface plasmon resonance.

[2] = biological target: T1, denatured bovine pancreatic …; assay: SPR (Biacore 3000), dRNase B immobilised on CM5; calculated from KD
Method: Steady-state binding kinetics using a bimolecular interaction model was determined using a Biacore 3000 instrument.
as §1
Dissociation (K_D) and off-rate constants ($koff$) for the interaction between denatured glycoprotein RNase B (dRNase B) with PNGase F mutagenized clones as determined by surface plasmon resonance. Kinetic data s as determined with dRNase B as immobilized ligand on CM5 sensor chip and PNGase F clone analytes.

[3] = biological target: T1, denatured bovine pancreatic …; assay: experimental binding free energy from SPR with dRNase B, relative to D60A
[4] = biological target: T1, denatured bovine pancreatic …; assay: SPR (Biacore 3000), dRNase B immobilised on CM5
Histone H2A type 2-C = biological target: T2, Histone H2A type 2-C (human); assay: R911 affinity column, MCF7 cell extract, chitobiose elution, LC-MS/MS
T2 construct: From MCF7 cell extract; also called H2A2C
Method: (§2) Cell extract (100 µg) was loaded onto a R911 affinity column and then competitively eluted with free chitobiose in the binding buffer, instead of the standard elution buffer (FIG. 37).
(§3) Human breast cancer MCF7 cells were cultured in DMEM media supplemented with 10% fetal bovine serum. Cells were passaged and harvested using trypsin-free cell release. Approximately, 2.3 ×10^7 cells were harvested and washed 3× with 10 mL of phosphate buffered saline at 4° C. by centrifugation at 1000×g for 5 minutes. The cell pellet was resuspended in 1.5 mL of filter sterilized cell lysis buffer (10 mM Tris-HCl, pH 7.5, 150 mM NaCl, 1% v/v Nonidet P-40) with EDTA-free protease inhibitor cocktail (Roche Diagnostics, Mannheim, Germany) and incubated on ice for 30 minutes.[17] The cells were ultra-sonicated (Misonix Ultrasonic Liquid Processor Model S-4000) at intervals of 15 seconds for a total of 2 minutes, with a 15 second pause between treatments (30% amplitude). […] The supernatant containing the MCF7 cell extract was stored at −80° C. in 50 µL aliquots. […] An aliquoted MCF7 cell extract stock was thawed on ice and diluted to 1 mg/mL using 10 mM HEPES, 10 mM NaCl, at pH 7.4.
(§4) LC-MS/MS Protein Identification of R911 Lectenz® Affinity Chromatography Eluted Samples MCF7 cell extract and proteins eluted from the R911 Lectenz® affinity column were reduced, alkylated and digested with sequence grade trypsin (Promega) using a standard in-solution digest protocol.[30] The samples were acidified with 1% trifluroacetic acid and desalting was performed using C18 spin columns (Silica C18, The Nest Group, Inc.).

Histone H2A.Z = biological target: T3, Histone H2A.Z (human); assay: as above
T3 construct: From MCF7 cell extract
Method: as §2, §3, §4

Histone H2A.x = biological target: T4, Histone H2A.x (human, UniProt P16104 2-143); assay: as above
T4 construct: From MCF7 cell extract
Method: as §2, §3, §4

Histone H2A type 1-B/E = biological target: T5, Histone H2A type 1-B/E (human); assay: as above
T5 construct: From MCF7 cell extract; also called H2A1B
Method: as §2, §3, §4

[5] = biological target: T1, denatured bovine pancreatic …; assay: experimental binding free energy from SPR with denatured RNase B
[6] = biological target: T6, RNase B deglycosylated with PNGase F (bovine, UniProt P61823 27-150); assay: R911 affinity chromatography
T6 construct: mature; also called deglycosylated RNase B
T6 sequence: T1 sequence with N34D

T3 sequence (chain, as listed by the source limits assumed): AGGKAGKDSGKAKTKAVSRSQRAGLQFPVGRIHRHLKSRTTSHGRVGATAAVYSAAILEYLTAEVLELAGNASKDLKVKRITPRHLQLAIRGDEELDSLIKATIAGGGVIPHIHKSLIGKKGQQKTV

| Binder | Kd [1] [nM] | ΔGBIND-EXP [2] [kcal/mol] | ΔΔGBIND-EXP (relative to D60A) [3] [kcal/mol] | koff [4] [s⁻¹] | binding result (Histone H2A type 2-C) | binding result (Histone H2A.Z) | binding result (Histone H2A.x) | binding result (Histone H2A type 1-B/E) | ΔΔGBIND-EXP (relative to R911 C60A) [5] [kcal/mol] | binding result [6] | Relative Affinity Enhancement (against D60A) [4] [fold] | Relative Off-Rate Enhancement (against D60A) [4] [fold] |
| --- | --- | --- | --- | --- | --- | --- | --- | --- | --- | --- | --- | --- |
| B1 | 6400 | -7.1 | 0.5 | 0.01 |  |  |  |  |  |  |  |  |
| B2 | 260 | -8.99 | -1.9 | 0.0051 | binds | binds | binds | binds | -1.2 | no binding | 10 | 84 |
| B3 | 2700 | -7.61 |  | 0.43 |  |  |  |  |  |  | 1 | 1 |
| B4 | 2000 | -7.77 | -0.7 | 0.012 |  |  |  |  |  |  | 1.3 | 35 |

Source: patent US11001824 (UNIVERSITY OF GEORGIA RESEARCH FOUNDATION, dated 2021)
